From paper doi:10.1101/144295, “Human PRDM9 can bind and activate promoters, and other zinc-finger proteins associate with reduced recombination in cis” (bioRxiv, 2017)

Target: the molecule itself
Assay: co-IP; competitive co-IP: HEK293T transfected with equimolar DNA of three constructs (one bait with one tag, Human and Chimp prey with the other tag); IP against the bait's tag, western blot against the prey's tag; replicated with reversed tags

B1: full-length human PRDM9 (B allele), C-terminally tagged with HA or V5 (natural protein)
chain: not shown
notes: 218 synonymous base changes in the zinc finger exon; An HA and a V5 version were made; The C-terminal cassette is linker-TwinStrep-linker-HA/V5-linker-P2A followed by YFP; vector pLENTI CMV/TO Puro DEST (Addgene plasmid # 17293); YFP probably separates at the P2A site (surmised); also called Human-HA; Human-V5; source: HEK293T, transfected (FuGENE-HD), in lysate; not shown: HA or V5, C-terminal, …
Question: How did the “fold more efficiently co-precipitated than the Chimp prey (Human bait)” value turn out when B1 was run?
Answer: > 2 fold
